Values quoted from earlier work, collected in publication PMC7763558.

Legend:
Test in all cases: SPR
[1] = target: BPTI (partially folded client) (Bos taurus) (UniProt P00974)
[2] = target: BPTI (unfolded client) (Bos taurus) (UniProt P00974)
[3] = target: BPTI (native client) (Bos taurus) (UniProt P00974)

- Kd [1]: 14 µM
- Kd [2]: 3 µM
- Kd [3]: 394 µM
Substance: PDI (from UniProt P07237)
